In patent US20240309103A1 (Regeneron, published 2024):

Legend:
[1] = target: T1, human NPR1 on HEK293/hNPR1.myc.DDK cells (0 hANP) (human, UniProt P16066 33-1061); experiment: cell-based or functional assay
T1 sequence: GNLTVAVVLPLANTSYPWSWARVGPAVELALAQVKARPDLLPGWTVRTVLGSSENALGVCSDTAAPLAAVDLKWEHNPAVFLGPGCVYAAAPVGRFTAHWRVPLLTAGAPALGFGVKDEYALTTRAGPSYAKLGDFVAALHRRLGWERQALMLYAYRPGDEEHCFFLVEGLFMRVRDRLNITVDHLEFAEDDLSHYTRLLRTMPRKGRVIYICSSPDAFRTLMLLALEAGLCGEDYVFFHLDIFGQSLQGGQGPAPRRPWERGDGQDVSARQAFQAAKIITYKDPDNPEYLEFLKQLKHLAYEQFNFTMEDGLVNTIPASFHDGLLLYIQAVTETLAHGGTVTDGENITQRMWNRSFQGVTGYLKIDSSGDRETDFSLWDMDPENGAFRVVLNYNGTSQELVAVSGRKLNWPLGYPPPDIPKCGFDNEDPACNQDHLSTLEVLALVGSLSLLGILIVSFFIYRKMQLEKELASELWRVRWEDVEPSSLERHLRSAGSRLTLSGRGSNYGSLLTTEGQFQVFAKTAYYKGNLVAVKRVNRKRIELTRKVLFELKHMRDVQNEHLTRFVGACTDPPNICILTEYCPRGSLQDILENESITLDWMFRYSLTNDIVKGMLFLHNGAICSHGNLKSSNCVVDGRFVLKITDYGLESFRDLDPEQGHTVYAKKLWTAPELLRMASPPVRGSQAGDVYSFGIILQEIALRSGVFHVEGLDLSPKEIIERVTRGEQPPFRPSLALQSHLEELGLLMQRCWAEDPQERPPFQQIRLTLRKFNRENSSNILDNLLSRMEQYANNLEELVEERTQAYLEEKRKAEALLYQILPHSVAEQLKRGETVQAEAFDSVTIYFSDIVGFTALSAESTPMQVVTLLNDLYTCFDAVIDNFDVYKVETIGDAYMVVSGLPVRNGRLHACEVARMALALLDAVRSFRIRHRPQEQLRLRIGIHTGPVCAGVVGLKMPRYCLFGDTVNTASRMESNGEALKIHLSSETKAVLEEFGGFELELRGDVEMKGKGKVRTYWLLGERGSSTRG

[2] = target: T2, mNPR1-mFc (mouse); experiment: SPR Biacore, mAb captured by anti-human Fc, 37C
T2 construct: also called mouse NPR1 extracellular domain expressed with a C-terminal mouse IgG2a
T2 chain: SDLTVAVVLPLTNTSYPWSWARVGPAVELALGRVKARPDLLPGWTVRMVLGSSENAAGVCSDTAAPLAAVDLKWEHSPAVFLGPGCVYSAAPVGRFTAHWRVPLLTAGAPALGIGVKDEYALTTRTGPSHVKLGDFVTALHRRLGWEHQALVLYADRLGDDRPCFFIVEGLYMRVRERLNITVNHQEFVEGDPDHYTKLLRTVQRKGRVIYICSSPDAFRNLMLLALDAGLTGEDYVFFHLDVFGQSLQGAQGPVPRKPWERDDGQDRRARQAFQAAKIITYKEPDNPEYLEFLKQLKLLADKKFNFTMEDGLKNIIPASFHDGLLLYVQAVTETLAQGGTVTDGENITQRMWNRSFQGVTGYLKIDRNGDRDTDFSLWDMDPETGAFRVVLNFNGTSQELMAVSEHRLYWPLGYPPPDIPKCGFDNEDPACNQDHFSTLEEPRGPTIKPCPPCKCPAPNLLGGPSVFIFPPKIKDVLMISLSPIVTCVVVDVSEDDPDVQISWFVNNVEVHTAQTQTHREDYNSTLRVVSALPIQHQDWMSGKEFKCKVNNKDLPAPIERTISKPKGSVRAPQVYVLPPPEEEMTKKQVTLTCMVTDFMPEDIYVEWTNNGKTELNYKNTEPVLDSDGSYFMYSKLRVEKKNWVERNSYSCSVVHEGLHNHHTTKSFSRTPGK
Method: (§1) Equilibrium dissociation constant (KD) for different NPR1 reagents binding to purified anti-NPR1 monoclonal antibodies (mAbs) were determined using a real-time surface plasmon resonance based Biacore 4000 biosensor. All binding studies were performed in 10 mM HEPES, 150 mM NaCl, 3 mM EDTA, and 0.05% v/v Surfactant Tween-20, pH 7.4 (HBS-ET) running buffer at 25° C. and 37° C. The Biacore CM5 sensor chip surface was first derivatized by amine coupling with either mouse anti-human Fc specific mAb (GE Healthcare, #BR100839) or goat anti-human Fcy specific polyclonal antibody (Jackson ImmunoResearch Laboratories, #BR-1008-39) to capture anti-NPR1 mAbs.

[3] = target: T3, mfNPR1-mFc:hBNP complex (monkey; human, UniProt P16860 103-134); experiment: SPR Biacore, mAb captured by anti-human Fc, 37C
T3 construct: Receptor-Fc pre-complexed with 10-fold hBNP
Method: as §1

[4] = target: T2, mNPR1-mFc; experiment: SPR Biacore, mAb captured by anti-human Fc, 25C
Method: as §1

[5] = target: T4, human NPR1 on HEK293/hNPR1.myc.DDK cells with 10 nM hANP (NPR1-ANP complex) (human, UniProt P01160 124-151); experiment: ECL cell binding (MSD), +10 nM hANP
T4 construct: also called NPR1-ANP Complex on the Cell Surface
T4 sequence: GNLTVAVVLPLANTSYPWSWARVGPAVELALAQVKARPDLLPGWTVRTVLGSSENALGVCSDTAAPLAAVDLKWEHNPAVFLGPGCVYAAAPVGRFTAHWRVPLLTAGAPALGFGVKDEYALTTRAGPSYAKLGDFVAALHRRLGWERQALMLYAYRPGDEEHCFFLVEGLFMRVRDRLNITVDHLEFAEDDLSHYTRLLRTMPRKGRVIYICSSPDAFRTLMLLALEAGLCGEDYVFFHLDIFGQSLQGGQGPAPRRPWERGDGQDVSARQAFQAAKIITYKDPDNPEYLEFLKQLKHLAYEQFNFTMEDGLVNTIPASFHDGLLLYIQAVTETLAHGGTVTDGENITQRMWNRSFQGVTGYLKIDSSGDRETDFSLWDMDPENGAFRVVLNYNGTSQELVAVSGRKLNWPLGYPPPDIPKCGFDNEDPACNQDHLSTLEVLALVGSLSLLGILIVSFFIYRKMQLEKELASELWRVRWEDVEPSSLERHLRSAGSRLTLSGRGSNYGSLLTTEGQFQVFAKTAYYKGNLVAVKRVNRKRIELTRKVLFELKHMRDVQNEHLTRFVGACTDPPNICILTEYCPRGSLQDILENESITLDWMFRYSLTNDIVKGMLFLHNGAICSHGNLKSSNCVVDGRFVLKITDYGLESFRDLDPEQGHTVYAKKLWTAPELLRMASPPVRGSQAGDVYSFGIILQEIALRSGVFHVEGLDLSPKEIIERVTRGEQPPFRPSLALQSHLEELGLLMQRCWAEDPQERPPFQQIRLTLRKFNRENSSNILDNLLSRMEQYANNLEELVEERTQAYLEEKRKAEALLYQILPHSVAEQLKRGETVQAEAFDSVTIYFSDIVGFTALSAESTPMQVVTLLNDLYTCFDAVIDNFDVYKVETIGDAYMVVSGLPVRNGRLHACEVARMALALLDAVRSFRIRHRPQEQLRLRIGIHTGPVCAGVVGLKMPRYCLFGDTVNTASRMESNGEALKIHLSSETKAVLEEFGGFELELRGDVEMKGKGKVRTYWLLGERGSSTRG
T4 sequence (peptide): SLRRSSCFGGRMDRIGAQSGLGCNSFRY
Method: (§2) All cells were washed once with 1×PBS with Ca²⁺/Mg²⁺ and counted with a Cellometer™ Auto T4 cell counter (Nexcelom Bioscience). Approximately 2.0×10⁴ HEK293/hNPR1.myc.DDK or HEK293 cells were seeded separately onto 96-well carbon electrode plates (MULTI-ARRAY high bind plate, Meso Scale Discovery (MSD, Rockville, MD)) and incubated for 1 hour (h) at 37° C. Nonspecific binding sites were blocked by 2% BSA (w/v) in 1×PBS with Ca²⁺/Mg²⁺for 1 h at room temperature (RT). HEK293/hNPR1.myc. […] The plate-bound antibodies were detected with SULFO-TAG™-conjugated goat polyclonal anti-human IgG antibody specific for heavy and light chains (Jackson Immunoresearch, West Grove, PA) for 1 h, RT.
(§3) After washes, plates were developed with Read Buffer (MSD, Rockville, MD) according to manufacturer's recommended procedure and luminescent signals were recorded with a SECTOR Imager 600 (MSD, Rockville, MD). Luminescence intensity, measured in relative light units (RLU), was recorded to indicate the binding intensity of each antibody at the range of concentrations.
(§4) In addition, direct binding signals (RLU) were analyzed as a function of the antibody concentration and data were fitted with a sigmoidal (four-parameter logistic) dose-response model using R statistical package (open source).

[6] = target: T1, human NPR1 on HEK293/hNPR1.myc.DDK …; experiment: ECL cell binding (MSD), 0 hANP
Method: as §2, §3, §4

B1: mAb25508 (antibody, human IgG4, V domains shown)
VH: EVQLVESGGGVVRPGGSLRLSCAASGFNVDDYGMSWVRQIPGKGLEWISGINWNGGRIYYADSMKGRITISRDNAKNSLYLQMNSLRAEDTALYHCVRDQWLVRGLDYWGQGTLVTVSS
VL: DIQMTQSPSSLSASVGDRVTITCRASQGIYNYLAWFQQKPGKAPKSLIYAASSLQSGVPSKFSGSGSGTDFTLTISSLQPEDFATYYCQQYNTYPYTFGQGTKLEIK
In the case of B1, the “% Activation (vs ANP max), Expt 1” value [1] is reported as 56.1%, the “EC50 (nM), calcium flux, Expt 1” value [1] is reported as 326 nM and the “100 nM Ag Bound (RU)” value [2] is reported as 0 RU. The “100 nM Ag Bound (RU)” value [3] was 266 RU, the Kd [3] was 0.354 nM and the koff [3] was 0.00015 s⁻¹. For the same binder, the kon [3] was 423000 M⁻¹ s⁻¹, the t½ [3] was 77.1 min and the “100 nM Ag Bound (RU)” value [4] was -1 RU. For the same binder, the EC50 [5] was 1.3 nM, the “Ratio at 3.7 nM Ab concentration of Cell Binding Signal (RLU) to HEK293/hNPR1.myc.DKK relative to parental HEK293” value [5] was 35 ratio and the “Ratio at 3.7 nM Ab concentration of Cell Binding Signal (RLU) to HEK293/hNPR1.myc.DKK relative to parental HEK293” value [6] was 18 ratio.
